From patent US20220290120A1

Experiments:
[1] = target: Cas9 nickase (nCas9) (Streptococcus pyogenes) (UniProt Q99ZW2); assay: cell-based or functional assay
[2] = target: catalytically inactive Cas9 (dCas9) (Streptococcus pyogenes) (UniProt Q99ZW2); assay: cell-based or functional assay

Substance: AcrIIA4 anti-CRISPR peptide
- average percent of qPCR-confirmed edited cells with nCas9 Plasmid 4 (+acrIIA4), per sgRNA unit pair; without acrIIA4 (Plasmid 5) between 73% and 100% [1]: 0.7 to 5.9%
- percent enzyme expression of gusA after dCas9 induction from Plasmid 6 (with acrIIA4); X-Gluc assay in E. coli [2]: 0%
- percent enzyme expression of lacZ after dCas9 induction from Plasmid 6 (with acrIIA4); LacZ blue white screening in E. coli [2]: 27.3%
- percent expression of flhC after dCas9 induction from Plasmid 6 (with acrIIA4); swimming motility assay in E. coli [2]: 100%
